Columns and labels:
[1] = system: MamB DNA methyltransferase (Mycobacterium tuberculosis); assay: cell_activity; conditions: SMRT sequencing kinetics
[2] = system: MamA DNA methyltransferase (Mycobacterium tuberculosis); assay: cell_activity; conditions: SMRT sequencing kinetics; mostly fully methylated reads

| Substance | activity (mean SMALR native score) [1] | activity (mean SMALR native score) [2] |
| --- | --- | --- |
| MamB target motif sites | 2.19 | – |
| CTGGAG (double strand) [MamA target motif sites] | – | 2.14 |

— patent publication US20230076063
